Reference: patent US20160252495A1 (UNIVERSITY OF BRITISH COLUMBIA, published 2016)

Biological target: T1, hen egg white lysozyme (hen, UniProt P00698 19-147)
T1 construct: also called HEL; hen-egg lysozyme
Assay: affinity measurements by microfluidic screening

T1 sequence (P00698 19-147 limits assumed): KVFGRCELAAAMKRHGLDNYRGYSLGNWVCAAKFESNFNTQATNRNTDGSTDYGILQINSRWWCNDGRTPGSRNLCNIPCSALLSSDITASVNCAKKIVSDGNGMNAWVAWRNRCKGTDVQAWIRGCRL

B1: Mm20 mouse anti-hen egg lysozyme antibody (antibody, V domains shown)
VH: QVQLQQSGPELMKPGASVKISCKATGYTFRNYWIEWIKQRPGHGLEWIGEILPESGSINYNEKFKGKATFTADTSSNTAYLQLRSLTSEDSAVYYCFYDNYVFDYWGQGTTL
VL: QIVLIQSPTIMSASPGEKVTMTCSANSSFSYMHWYQQKSGTSPKRWIYDTSKLASGVPARFSGSGSGTSYSLTISSMEAEDAATYYCQQWSRNPTFGAGTKL
Question: Does B1 bind?
Answer: binds
